In publication PMC5033356, “Crystal Structure of the Escherichia coli Fic Toxin-Like Protein in Complex with Its Cognate Antitoxin” (PLoS ONE, 2016):
Positions count from the first letter of the chain named. In names and notes the source's numbering stands.

T1: EcFicT (E. coli Fic toxin-like protein, wild type) (Escherichia coli, UniProt P20605 3-200)
T1 construct: EcFicT, product of the fic gene (renamed ecficT) of Escherichia coli; UniProt P20605; model of PDB 5JFZ covers residues 10-81, 88-195; also called EcFicTwt; Fic protein from E. coli
T1 sequence: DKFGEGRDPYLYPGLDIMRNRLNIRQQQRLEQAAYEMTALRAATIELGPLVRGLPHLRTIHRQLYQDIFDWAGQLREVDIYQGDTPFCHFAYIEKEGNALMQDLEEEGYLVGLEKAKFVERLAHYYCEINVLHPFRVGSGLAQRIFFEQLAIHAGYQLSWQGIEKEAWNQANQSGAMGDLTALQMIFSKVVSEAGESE

T2: EcFicT_(G55R) (Escherichia coli, UniProt P20605 3-200, G55R)
T2 construct: EcFicT of Escherichia coli, UniProt P20605, with G55R (the change encoded by the temperature-sensitive fic-1 allele), introduced by a single base-pair mutation; model of PDB 5JFF covers residues 10-15, 17-198; G55R is the change of the fic-1 mutant allele described by Utsumi et al; here it was introduced into the plasmid by mutagenesis; also called G55R point mutant of EcFicT; product of the …
T2 sequence: T1 sequence with G53R

B1: EcFicA (cognate antitoxin of EcFicT, wild type) (natural protein, Escherichia coli)
chain: KKLTDKQKSRLWELQRNRNFQASRRLEGVEMPLVTLTAAEALARLEELRSHYER
notes: EcFicA, product of the yhfG gene (renamed ecficA) of Escherichia coli; UniProt P0ADX5; model of PDB 5JFF covers residues 3-53; also called EcFicAwt; YhfG
B2: EcFicA_(E28G) (natural protein, Escherichia coli)
chain: B1 chain with E27G
notes: model of PDB 5JFZ covers residues 5-53; also called antitoxin mutant EcFicA_(E28G)

Tests used:
[1] = molecular target: T1, EcFicT (E. coli Fic toxin-like protein, …); test: SEC-MALS; details: both partners purified
[2] = molecular target: T2, EcFicT_(G55R); test: SEC-MALS; details: both partners purified

Binder | stoichiometry N [1] | stoichiometry N [2]
B1 | 1 | 1
B2 | 1 | 1
